Results taken from the supplement of paper PMC10567573.

B1: PDZK1 (parent)
chain: QKEQGLSDNILSPVMNGGVQTWTQ
B2: IQUB (parent)
chain: EADYEDDSKIAFLMQLQDIQYLTE

Variants of: B1
Experiment: protein stability index of a GFP-peptide fusion (GPS, HEK-293T) (PSI 1-6); higher = more stable
Settings: c terminus: a fixed tail appended
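Further: lentivirally expressed fusions sorted by FACS into six bins by GFP to DsRed ratio, PSI derived from sequencing read proportions per bin multiplied by bin number.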

Protein stability index of substitutions, site by site:
L6: T 3.27; Y 2.49; M 2.12; H 3.12; D 2.65; G 2.61; E 3.65; C 2.98; A 2.96; P 3.03; R 3.71; Q 3.92; K 4.46; F 1.87; W 2.56; N 3.29
G18: P 3.46; R 1.84; Y 2.45; V 2.47; I 2.61; A 3.46; S 2.65; C 2.54; F 2.45; N 2.67; K 1.53; L 2.58; H 2.62; E 2.56; M 2.58; W 2.33; D 3.35
Q20: P 3.07; Y 2.68; A 3.69; T 3; I 2.49; C 2.16; D 3.29; L 2.14; S 2.88; W 3.36; F 2.68; V 2.67; N 3.73; K 3.8; G 3.02; E 1.58
W22: S 5.05; K 4.93; M 4.55; R 5.04; P 5.07; H 4.59; E 4.3; Y 4.09; F 3.97; Q 5.24; I 4.88; A 4.41; N 5.08; C 4.8; D 4.78
N9: H 2.34; K 1.8; S 2.75; I 2.88; E 3.25; T 2.56; A 2.67; L 2.21; M 2.74; F 1.86; R 2.05; G 2.56; D 3.45; C 2.67; V 2.38; Y 1.78; Q 2.5
T21: F 2.75; K 3.46; A 3.61; E 3.71; P 3.74; R 3.23; L 2.68; C 2.66; N 3.65; M 3.63; Q 3.55; W 2.82; D 4.85
P13: V 2.41; C 1.87; R 2.09; F 1.56; Y 1.9; N 3.05; S 2.37; H 1.96; T 2.34; K 2.47; A 2.06; I 1.59; Q 2.5
T23: P 4.25; D 3.67; Y 3.05; V 1.56; N 3.12; W 2.96; F 3.02; R 3.42; I 4; G 3.5; M 3.74; K 3.39; Q 2.16; S 3.43
D8: T 2.39; E 3.04; I 2.05; W 2.4; V 2.29; G 3.29; C 1.51; N 2.68; P 2.34; L 2.73; M 1.92; Y 2.15; R 2.59; F 1.1; K 2.1; S 2.34
S7: K 2.18; D 2.54; G 3.19; N 2.77; Q 2.13; C 3.27; A 2.51; Y 2.12; P 3.36; E 3.43; F 2; I 2.48; M 2.68; T 2.09
M15: T 2.97; E 3.69; A 1.84; I 2.79; C 1.97; Y 2.44; D 3.02; F 1.87; Q 2.46; R 2.24; H 2.51; S 2.21; N 2.85
L11: W 2.33; H 2.75; E 3.97; A 3.47; M 3.25; F 2.13; Q 2; K 1.64; P 2.48; Y 2.5; C 2.63; R 2.73; I 1.89; V 3.62
V14: H 2.46; S 2.91; T 2.93; E 2.78; K 2.54; G 1.5; N 2.77; A 3.29; I 2.4; M 2.65; Y 1.94; R 2.64; Q 2.9; P 2.47; C 3.74
Q24: K 3.55; C 2.14; I 2.36; P 4.43; V 2.72; G 3.58; T 3.66; M 2.26; H 2.84; R 3.35; S 1.68; D 3.13; F 1.78; E 3.43
N16: K 1.49; F 2.61; R 2.34; D 3.71; S 2.81; H 2.81; Q 1.72; C 2.75; Y 2.45; E 3.41; I 2.89; P 2.12; L 2.47
I10: R 2.35; E 3.89; M 2.67; C 3.03; N 3.43; H 2.96; F 2.04; Q 3.34; G 2.83; V 2.56; A 2.89; K 3.02; Y 2.6
S12: W 1.95; F 2.76; K 2.18; P 3.76; D 3.84; Y 2.83; A 2.58; N 3.27; G 3.21; M 2.22; T 2.36; I 3.58; H 1.74
V19: R 1.85; H 2.58; P 3.44; G 2.9; D 4.3; Y 1.86; A 2.99; T 3.09; E 3.7; N 2.6; F 2.42; K 2.16; I 2.17; M 1.9
G17: V 3.6; W 1.85; K 2.13; E 3.27; R 2.04; L 2.8; I 3.36; F 2.19; A 3.96; H 1.91; M 2.36; Y 2.5; T 2.25; S 3.31

Variants of: B2
Experiment: as above
Settings: c terminus: a fixed tail appended

Protein stability index, by site and new letter:
I10: C 3.34
M14: K 3.77
Y21: R 2.99; S 3.52; H 3.55; W 2.95
A11: G 3.41; D 4.07; Y 2.02
D7: V 1.96; L 1.89; R 2.87; T 2.19
E24: V 1.81; L 1.56; Y 2.36; P 3.29
L13: D 4.68; W 3.51; G 4.29; M 3.26
L22: S 3.99; G 4.5
Q17: S 2.69; C 2.25
D6: H 2.4; N 2.9; S 2.7
A2: T 2.93; M 2.44
Y4: C 3.27; G 3.61; E 4.09; N 4.01
E5: A 2.22; M 2.53
D3: N 2.87; W 2.93; T 2.48
Q20: V 2.19; N 3.22; Y 1.62; S 3.61
K9: R 2.89; M 2.47
L16: W 3.25; G 4.76
E1: N 2.85; G 2.79; S 2.65; F 1.99; T 2.47; L 2.75
D18: H 2.58; F 2.33
Q15: T 2.19; S 2.46; W 1.78; N 2.84; H 2.44
